Molecular target: C3 convertase complex (UniProt P01024 23-1663; P00751 260-764)
Assay: cell-based or functional assay
Wherever C3 convertase activity % of the control is given: test concentration or dose not given here.

C3 convertase complex, sequence (P01024 23-1663, chain 1 of 2): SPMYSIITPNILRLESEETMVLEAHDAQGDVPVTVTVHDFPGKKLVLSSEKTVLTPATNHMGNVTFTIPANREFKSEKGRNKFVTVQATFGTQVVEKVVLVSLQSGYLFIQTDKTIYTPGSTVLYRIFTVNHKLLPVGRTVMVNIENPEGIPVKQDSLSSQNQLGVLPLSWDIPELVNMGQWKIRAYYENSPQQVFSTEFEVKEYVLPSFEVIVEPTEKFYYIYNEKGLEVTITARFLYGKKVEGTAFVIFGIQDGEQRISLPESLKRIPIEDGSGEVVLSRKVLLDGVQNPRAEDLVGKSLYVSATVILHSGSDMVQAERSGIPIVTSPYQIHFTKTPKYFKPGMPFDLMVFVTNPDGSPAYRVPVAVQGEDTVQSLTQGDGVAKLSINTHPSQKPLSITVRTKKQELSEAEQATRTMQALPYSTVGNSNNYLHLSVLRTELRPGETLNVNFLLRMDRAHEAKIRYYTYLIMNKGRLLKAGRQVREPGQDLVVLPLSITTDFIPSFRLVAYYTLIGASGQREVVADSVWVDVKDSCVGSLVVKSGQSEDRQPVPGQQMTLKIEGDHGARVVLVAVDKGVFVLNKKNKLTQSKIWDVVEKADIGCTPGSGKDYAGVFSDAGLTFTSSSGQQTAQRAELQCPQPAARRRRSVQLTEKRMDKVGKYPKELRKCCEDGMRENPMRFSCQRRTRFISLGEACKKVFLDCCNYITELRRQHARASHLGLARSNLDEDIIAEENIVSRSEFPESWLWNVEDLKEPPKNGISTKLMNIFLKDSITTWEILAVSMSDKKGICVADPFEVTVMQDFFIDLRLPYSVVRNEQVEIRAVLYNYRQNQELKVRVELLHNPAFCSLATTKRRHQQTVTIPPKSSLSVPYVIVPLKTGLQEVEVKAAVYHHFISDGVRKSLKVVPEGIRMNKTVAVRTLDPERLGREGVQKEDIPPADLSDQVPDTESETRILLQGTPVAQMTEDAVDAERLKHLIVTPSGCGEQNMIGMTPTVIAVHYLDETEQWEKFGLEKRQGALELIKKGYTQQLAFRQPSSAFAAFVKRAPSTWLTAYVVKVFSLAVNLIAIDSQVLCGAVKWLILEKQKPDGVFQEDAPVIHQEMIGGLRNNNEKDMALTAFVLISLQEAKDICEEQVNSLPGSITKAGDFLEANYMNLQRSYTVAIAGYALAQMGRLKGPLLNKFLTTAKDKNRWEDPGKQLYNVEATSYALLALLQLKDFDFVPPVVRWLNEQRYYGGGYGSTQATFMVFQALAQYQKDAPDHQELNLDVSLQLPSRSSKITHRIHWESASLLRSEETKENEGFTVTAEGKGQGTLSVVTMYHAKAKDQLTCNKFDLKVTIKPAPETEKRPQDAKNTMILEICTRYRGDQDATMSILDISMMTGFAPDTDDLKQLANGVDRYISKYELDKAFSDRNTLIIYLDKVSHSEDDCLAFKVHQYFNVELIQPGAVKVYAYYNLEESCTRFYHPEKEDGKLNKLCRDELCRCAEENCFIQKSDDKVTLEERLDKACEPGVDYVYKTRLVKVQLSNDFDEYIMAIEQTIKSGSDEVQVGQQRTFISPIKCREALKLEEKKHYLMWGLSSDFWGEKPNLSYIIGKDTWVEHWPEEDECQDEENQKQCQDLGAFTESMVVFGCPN
C3 convertase complex, sequence (P00751 260-764, chain 2 of 2): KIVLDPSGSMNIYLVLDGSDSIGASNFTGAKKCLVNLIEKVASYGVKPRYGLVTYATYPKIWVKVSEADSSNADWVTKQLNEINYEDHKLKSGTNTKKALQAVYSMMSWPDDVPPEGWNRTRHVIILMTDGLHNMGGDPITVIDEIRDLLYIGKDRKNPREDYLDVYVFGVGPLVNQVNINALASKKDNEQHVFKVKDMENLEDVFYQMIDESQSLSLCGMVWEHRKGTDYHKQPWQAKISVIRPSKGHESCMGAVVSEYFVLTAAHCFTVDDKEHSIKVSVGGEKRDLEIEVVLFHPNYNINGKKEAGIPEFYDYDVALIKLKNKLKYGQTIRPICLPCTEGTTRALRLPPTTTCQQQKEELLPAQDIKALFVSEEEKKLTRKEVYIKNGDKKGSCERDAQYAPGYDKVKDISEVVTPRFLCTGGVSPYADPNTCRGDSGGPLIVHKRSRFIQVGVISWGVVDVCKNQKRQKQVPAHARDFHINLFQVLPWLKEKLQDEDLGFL

| C3 convertase activity % of the control | C3 convertase activity IC50 | Binder |
| --- | --- | --- |
| 6 % of the control | 1.99 µg/mL | pCEP4-1NT11-14CT20 (other) EDCNELPPRRNTEILTGSWSDQTYPEGTQAIYKCRPGYRSLGNVIMVCRKGEWVALNPLRKCQKRPCGHPGDTPFGTFTLTGGNVFEYGVKAVYTCNEGYQLLGEINYRECDTDGWTNDIPICEVVKCLPVTAPENGKIVSSAMEPDREYHFGQAVRFVCNSGYKIEGDEEMHCSDDGFWSKEKPKCVEISCKSPDVINGSPISQKIIYKENERFQYKCNMGYEYSERGDAVCTESGWRPLPSCEEKSCDNPYIPNGDYSPLRIKHRTGDEITYQCRNGFYPATRGNTAKCTSTGWIPAPRCTLKPCDYPDIKHGGLYHENMRRPYFPVAVGKYYSYYCDEHFETPSGSYWDHIHCTQDGWSPAVPCLRKCYFPYLENGYNQNHGRKFVQGKSIDVACHPGYALPKAQTTVTCMENGWSPTPRCIRVKTCSKSSIDIENGFISESQYTYALKEKAKYQCKLGYVTADGETSGSITCGKDGWSAQPTCIKSCDIPVFMNARTKNDFTWFKLNDTLDYECHDGYESNTGSTTGSIVCGYNGWSDLPICYERECELPKIDVHLVPDRKKDQYKVGEVLKFSCKPGFTIVGPNSVQCYHFGLSPDLPICKEQVQSCGPPPELLNGNVKEKTKEEYGHSEVVEYYCNPRFLMKGPNKIQCVDGEWTTLPVCIVEESTGASGCPPPPQIPNSHNMTTTLNYRDGEKVSVLCQENYLIQEGEEITCKDGRWQSIPLCVEKIPCSQPPQIEHGTINSSRSSQESYAHGTKLSYTCEGGFRISEENETTCYMGKWSSPPQCEGLPCKSPPEISHGVVAHMSDSYQYGEEVTYKCFEGFGIDGPAIAKCLGEKWSHPPSCIKTDCLSLPSFENAIPMGEKKDVYKAGEQVTYTCATYYKMDGASNVTCINSRWTGRPTCRDTSCVNPPTVQNAYIVSRQMSKYPSGERVRYQCRSPYEMFGDEEVMCLNGNWTEPPQCKDSTGKCGPPPPIDNGDITSFPLSVYAPASSVEYQCQNLYQLEGNKRITCRNGQWSEPPKCLHPCVISREIMENYNIALRWTAKQKLYSRTGESVEFVCKRGYRLSSRSHTLRTTCWDGKLEYPTCAKRGGSGHHHHHH |
| 6 % of the control | 1.17 µg/mL | pCEP4-1NT10-15CT20 (other) EDCNELPPRRNTEILTGSWSDQTYPEGTQAIYKCRPGYRSLGNVIMVCRKGEWVALNPLRKCQKRPCGHPGDTPFGTFTLTGGNVFEYGVKAVYTCNEGYQLLGEINYRECDTDGWTNDIPICEVVKCLPVTAPENGKIVSSAMEPDREYHFGQAVRFVCNSGYKIEGDEEMHCSDDGFWSKEKPKCVEISCKSPDVINGSPISQKIIYKENERFQYKCNMGYEYSERGDAVCTESGWRPLPSCEEKSCDNPYIPNGDYSPLRIKHRTGDEITYQCRNGFYPATRGNTAKCTSTGWIPAPRCTLKPCDYPDIKHGGLYHENMRRPYFPVAVGKYYSYYCDEHFETPSGSYWDHIHCTQDGWSPAVPCLRKCYFPYLENGYNQNHGRKFVQGKSIDVACHPGYALPKAQTTVTCMENGWSPTPRCIRVKTCSKSSIDIENGFISESQYTYALKEKAKYQCKLGYVTADGETSGSITCGKDGWSAQPTCIKSCDIPVFMNARTKNDFTWFKLNDTLDYECHDGYESNTGSTTGSIVCGYNGWSDLPICYERECELPKIDVHLVPDRKKDQYKVGEVLKFSCKPGFTIVGPNSVQCYHFGLSPDLPICKEQVQSGASGCSQPPQIEHGTINSSRSSQESYAHGTKLSYTCEGGFRISEENETTCYMGKWSSPPQCEGLPCKSPPEISHGVVAHMSDSYQYGEEVTYKCFEGFGIDGPAIAKCLGEKWSHPPSCIKTDCLSLPSFENAIPMGEKKDVYKAGEQVTYTCATYYKMDGASNVTCINSRWTGRPTCRDTSCVNPPTVQNAYIVSRQMSKYPSGERVRYQCRSPYEMFGDEEVMCLNGNWTEPPQCKDSTGKCGPPPPIDNGDITSFPLSVYAPASSVEYQCQNLYQLEGNKRITCRNGQWSEPPKCLHPCVISREIMENYNIALRWTAKQKLYSRTGESVEFVCKRGYRLSSRSHTLRTTCWDGKLEYPTCAKRGGSGHHHHHH |
